Tested on: murine macrophage RAW264.7 cells
Assay: Osteoclastic differentiation of RAW264.7 cells (TRAP stain)
Assay type: cell-based
Description: Grafts (5×5×1 mm, FlexBone 25% HA-25% TCP) were pre-absorbed with varying amounts of growth factors and cytokines to provide an exogenous supply for remodeling. […] The preferred loading dose of RANKL (10 ng/FlexBone graft) was determined by the osteoclastic differentiation of macrophage RAW264.7, induced by the RANKL released from the graft as indicated by positive TRAP stains (purple) of multinucleated cells on Day 6. […] Finally, the preferred loading dose of rhVEGF165 in stimulating the proliferation of human vascular endothelial cells in culture was determined to be 5 ng/graft.
Materials. The radical inhibitors in the commercial 2-hydroxyethyl methacrylate (HEMA, Aldrich) and ethylene glycol dimethacrylate (EGDMA, Aldrich) were removed via distillation under reduced pressure and by passing through a 4 Å molecular sieve column prior to use, respectively. […] In a typical procedure, 0-5.0 wt % TCH was dissolved in the mixture of freshly distilled monomer HEMA, 2% cross-linker EGDMA and viscous solvent ethylene glycol under bath-sonication, before 25 wt % HA, 25 wt % TCP, and the aqueous radical initiators ammonium persulfate and sodium metasulfite were added and thoroughly mixed (Table I). […] The compressive behavior of FlexBone in fully hydrated state as a function of TCH content was analyzed using a Q800 Dynamic Mechanical Analyzer (DMA, TA Instruments) equipped with a submersion compression fixture. […] An L-square was used to make sure that the sanded top and bottom surfaces were parallel prior to testing, and the final dimensions of each specimen were measured by a digital caliper. […] All stress-strain curves presented are based on the engineering stress and engineering strain recorded, assuming a fixed cross-section of the material defined at the start of the test. […] The release of TCH from FlexBone vs. pHEMA hydrogel in water as a function of time and the initial TCH incorporation was monitored over 1 week at 357.9 nm. […]

B1: rmRANKL: recombinant receptor activator of nuclear factor κB ligand, E. coli expressed (protein, UniProt O35235 139-316, looked up)
Tumor necrosis factor ligand …: FSGAPAMMEGSWLDVAQRGKPEAQPFAHLTINAASIPSGSHKVTLSSWYHDRGWAKISNMTLSNGKLRVNQDGFYYLYANICFRHHETSGSVPTDYLQLMVYVVKTSIKIPSSHNLMKGGSTKNWSGNSEFHFYSINVGGFFKLRAGEEISIQVSNPSLLDPDQDATYFGAFKVQDID
For B1, which osteoclast differentiation (continued supplement of 10-ng every other day, day six) is on record?
The osteoclast differentiation was “formation of TRAP-positive multinucleated osteoclasts”.

And the preferred loading dose (determined by osteoclastic differentiation of RAW264.7, TRAP stains Day 6)?
The preferred loading dose was 10 ng/FlexBone graft.

What about the osteoclast differentiation (single supplement of 10-ng directly to culture) of the same molecule?
Its osteoclast differentiation is “not sufficient in inducing the osteoclast differentiation”.
